B1: NP_009172.2 (parent)
chain: LPALFTDLYSQEITAEEAREALP
B2: ZNF8 (parent)
chain: KPYTCSVCGKSFSRTTCLFLHLRT

Variants of: B1
Assay: protein stability index of a GFP-peptide fusion (GPS, HEK-293T) (PSI 1-6); higher = more stable
Details: c terminus: native

Protein stability index, by site and new letter:
P23: K 4.82, E 5, A 4.14, L 4.01, W 3, G 4.69, M 2.27, V 4.18, S 4.8, H 4.15, R 2.83, Q 4.85, Y 3.49, F 3.94, N 4.89, D 5.15, T 4.6, C 4.21, I 3.59
L22: C 2.65, D 4.62, N 4.7, T 3.44, G 2.88, I 2.37, K 4.93, E 2.69, A 3.54, M 2.44, R 4.15, V 3.17, H 3.44, Y 3.49, Q 3.01, F 3.49, W 2.67, S 3.59, P 3.63
E20: A 2.41, L 2.51, N 2.2, F 2.43, P 2.86, H 2.27, V 2.6, R 1.98, Q 2.22, I 2.32, C 2.38, W 2.42, M 2.39, Y 3.08, D 2.65, S 2.28, K 2.42, G 2.11
R19: V 2.8, Y 2.53, Q 2.75, T 2.9, P 2.93, W 2.56, S 2.89
A21: Q 2.46, C 2.46, G 2.81, M 2.23, W 2.19, E 3.6, S 2.7, R 2.02, L 2.26, F 2.31, K 2.46, Y 2.3, V 2.16, I 2.4, P 2.69, N 2.6, H 2.29, D 3.67, T 2.85

Variants of: B2
Assay: as above
Details: c terminus: a fixed tail appended

Protein stability index of substitutions, site by site:
Y3: E 1.76, F 1.4, A 1.63, V 2.1, M 2.3, P 1.69, R 1.76, N 1.71, H 2.46, G 1.61, C 1.7, W 1.7, Q 2.01, T 2.4, K 1.91, I 1.7, L 2.19, S 1.74, D 2.07
C5: G 3.6, K 3.15, M 2.18, D 1.96, L 3.52, E 3.3, A 1.97, I 3.17, F 2.46
T4: A 1.43, Q 1.49, G 2.51, I 2.36, V 1.69, K 2.04, H 1.8, M 1.83, N 1.67, P 1.86, R 2.4, E 1.77, L 2.19, S 1.48, D 2.75, Y 1.63, C 2.1, W 1.62, F 1.9
K1: T 1.67, A 2.74, I 2.04, Q 2.39, W 1.74, Y 2.24, N 2.36, M 2.22, E 2.19, L 2.27, S 1.93, V 1.72, F 2.19, R 2.26, C 2.08, G 2.48, P 1.91, D 2.46, H 2.1
P2: M 1.98, D 2.33, A 2.24, Y 2.09, C 1.86, R 1.77, T 2.19, V 2.46, S 2.72, Q 1.87, H 2.5, N 2.14, G 3, K 2.05, W 2.42, F 1.48, L 1.74, E 2.55, I 2.08

From the supplement of paper PMC10567573
